Source: the supplement of paper PMC9732359
± gives the uncertainty stated by the source.

assay: protein stability index of a GFP-peptide fusion (yeast GPS) (PSI 1-4); higher = more stable; sorted into four equal gates, so the index is relative within each strain; settings: pdr5∆
How it was run: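 Tiled 17-residue yeast protein peptides were fused downstream of GFP in a plasmid that also expresses Cherry, and the pooled library was carried in yeast. Mid-log cultures in leucine-free medium were sorted into four equal gates by GFP/Cherry fluorescence ratio, and plasmids from each gate were PCR-amplified and Illumina-sequenced, with reads assigned to strains by barcodes. The protein stability index for each peptide was each gate's read frequency times its gate number, summed.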

Work on AGQNATVAVMSYSGYDI [RET1] yielded a protein stability index of 1.38 ± 0.045.

same assay, conditions: san1∆

Going from AAAFSQQQNASSKLYQM [GAL11] to AAAGGDAAAEEEKEEEA [RPP1B], the protein stability index rises from 2.82 ± 0.045 to 3.16 ± 0.2.

Going from AAEFRYKYGYDMPCDVL [SCL1] to AAEPMDSKMIQDLSRNT [SNU114], the protein stability index rises from 2.69 ± 0.054 to 3.18 ± 0.19.

AAGVERLIFYPDEYEQL [PRE3] and AAIHAKRVTIQKKDIKL [HHT1] are within error of each other in protein stability index: 3.1 ± 0.093 for the first, 3.14 ± 0.091 for the second.

Going from AAIKDLDDFGEEELFEV [RRP43] to AALDITNVQRIAAYIRR [SMC1], the protein stability index rises from 2.17 ± 0.13 to 3.24 ± 0.13.

Going from AALDLSHTQNIGHLIKT [SMC2] to AALFRLHKFLTKWGLIN [SWI3], the protein stability index rises from 2.27 ± 0.087 to 2.94 ± 0.19.

First: AALKKTRKAARPQKLRA [RPL6A]
Second: AAQIFGSYNAFEPASRL [COR1]
The protein stability index of the first is higher: 2.97 ± 0.043 for the first, 1.41 ± 0.16 for the second.

Going from AAQTLLQMDYKDDMKVD [PRE9] to AARKAANKEKRAIILER [RPL7A], the protein stability index falls from 3.25 ± 0.063 to 1.14 ± 0.078.

AASALDEKEKQLAVANE [SIR4] and AASKVKLEEESKRGNDK [RPC53] are within error of each other in protein stability index: 3.3 ± 0.055 for the first, 3.38 ± 0.071 for the second.

Going from AATVRSTIRRLREMVEA [RPL43A] to AAVIALGFVLLRDYTTV [RPN2], the protein stability index falls from 2.74 ± 0.086 to 1.22 ± 0.082.

First: ADAGIELVDMAGAGEAN [MTR3]
Second: ADAVTKDLKLRREDEII [REC8]
The protein stability index of the first is lower: 2.32 ± 0.1 for the first, 3.3 ± 0.065 for the second.

Going from ADEPVKASLLLHVLVAH [FAS2] to ADINSNRLSNPQKNLLL [YOR098C/NUP1], the protein stability index rises from 1.3 ± 0.059 to 2.81 ± 0.065.

Going from ADVHFLDCDGGFIDASC [RRP45] to ADVLSILAMTYSENGKH [RPN1], the protein stability index falls from 3.14 ± 0.055 to 1.45 ± 0.11.

First: ADVLVDRVVSSDSLDIA [SRP72]
Second: AEDGSRSTKDMIDAVFE [SNF6]
The protein stability index of the first is lower: 1.42 ± 0.12 for the first, 3.31 ± 0.042 for the second.

Compared with AEEKREAVIDEKLEVIA [ITC1], AEFILKNRSTIFWGIRL [BRR2] is lower in protein stability index: 3.03 ± 0.14 for the first, 1.52 ± 0.089 for the second.

AENQTGESTVESEKLVT [RPC82] and AERDSQGGFYKQQDAEE [UBP6] are within error of each other in protein stability index: 3.15 ± 0.11 for the first, 3.07 ± 0.077 for the second.

Going from AESMCQELELPGEFVTA [SNF5] to AETLAEELINAAKGSST [RPS5], the protein stability index falls from 2.62 ± 0.048 to 2.32 ± 0.1.

Compared with AFDIELSEFGIKKMLHL [YCS4], AFLALVDAGIALNSMCA [RRP46] is lower in protein stability index: 2.67 ± 0.1 for the first, 1.7 ± 0.08 for the second.

AFSFGAKSNEDKQDGTA [YJL041W/NSP1] and AFSYEQAQLRIDDKTQN [DIS3] are within error of each other in protein stability index: 3 ± 0.2 for the first, 2.87 ± 0.12 for the second.

Compared with AGGGSNKSSVRPTGGAN [MED6], AGLGKTNELWARLAILK [YGR119C/NUP57] is lower in protein stability index: 2.79 ± 0.096 for the first, 2.02 ± 0.2 for the second.

Going from AGLTRSDRSLSEDLFAD [BRR2] to AGQNATVAVMSYSGYDI [RET1], the protein stability index falls from 3.56 ± 0.2 to 1.33 ± 0.086.

same assay, conditions: ubr1∆

AAAFSQQQNASSKLYQM [GAL11] and AAAGGDAAAEEEKEEEA [RPP1B] are within error of each other in protein stability index: 3.25 ± 0.072 for the first, 3.08 ± 0.23 for the second.

Going from AAEFRYKYGYDMPCDVL [SCL1] to AAGVERLIFYPDEYEQL [PRE3], the protein stability index rises from 2.33 ± 0.059 to 2.69 ± 0.16.

AAIHAKRVTIQKKDIKL [HHT1] and AALDITNVQRIAAYIRR [SMC1] are within error of each other in protein stability index: 3.1 ± 0.075 for the first, 3.09 ± 0.091 for the second.

AALDLSHTQNIGHLIKT [SMC2] and AALFRLHKFLTKWGLIN [SWI3] are within error of each other in protein stability index: 2.72 ± 0.046 for the first, 2.66 ± 0.23 for the second.

Compared with AALKKTRKAARPQKLRA [RPL6A], AAQIFGSYNAFEPASRL [COR1] is lower in protein stability index: 3.16 ± 0.055 for the first, 1.51 ± 0.082 for the second.

Going from AAQTLLQMDYKDDMKVD [PRE9] to AARKAANKEKRAIILER [RPL7A], the protein stability index falls from 3.26 ± 0.084 to 1.27 ± 0.14.

AASALDEKEKQLAVANE [SIR4] and AASKVKLEEESKRGNDK [RPC53] are within error of each other in protein stability index: 3.36 ± 0.073 for the first, 3.25 ± 0.064 for the second.

Going from AATVRSTIRRLREMVEA [RPL43A] to AAVIALGFVLLRDYTTV [RPN2], the protein stability index falls from 3.09 ± 0.064 to 1.27 ± 0.048.

ADAGIELVDMAGAGEAN [MTR3] and ADAVTKDLKLRREDEII [REC8] are within error of each other in protein stability index: 2.9 ± 0.086 for the first, 3.03 ± 0.062 for the second.

Going from ADEPVKASLLLHVLVAH [FAS2] to ADINSNRLSNPQKNLLL [YOR098C/NUP1], the protein stability index rises from 1.43 ± 0.028 to 2.88 ± 0.082.

Compared with ADVHFLDCDGGFIDASC [RRP45], ADVLSILAMTYSENGKH [RPN1] is lower in protein stability index: 2.9 ± 0.054 for the first, 1.36 ± 0.052 for the second.

Going from ADVLVDRVVSSDSLDIA [SRP72] to AEDGSRSTKDMIDAVFE [SNF6], the protein stability index rises from 1.81 ± 0.081 to 3.14 ± 0.046.

First: AEEDSLLSGEDLTLDDI [YJL039C/NUP192]
Second: AEEKREAVIDEKLEVIA [ITC1]
The protein stability index of the first is higher: 3.43 ± 0.13 for the first, 3.13 ± 0.082 for the second.

Going from AEFILKNRSTIFWGIRL [BRR2] to AEKFVPIDIFQIIRRVK [SIR3], the protein stability index falls from 1.77 ± 0.048 to 1.16 ± 0.2.

AELLNEWHSSLTLKEAE [PUP2] and AENQTGESTVESEKLVT [RPC82] are within error of each other in protein stability index: 3.02 ± 0.17 for the first, 3.45 ± 0.29 for the second.

Compared with AERDSQGGFYKQQDAEE [UBP6], AESMCQELELPGEFVTA [SNF5] is lower in protein stability index: 3.28 ± 0.055 for the first, 2.46 ± 0.081 for the second.

Going from AETLAEELINAAKGSST [RPS5] to AFDIELSEFGIKKMLHL [YCS4], the protein stability index rises from 2.09 ± 0.088 to 3.12 ± 0.063.

Going from AFLALVDAGIALNSMCA [RRP46] to AFSFGAKSNEDKQDGTA [YJL041W/NSP1], the protein stability index rises from 2.59 ± 0.076 to 3.44 ± 0.14.

Going from AFSYEQAQLRIDDKTQN [DIS3] to AGGGSNKSSVRPTGGAN [MED6], the protein stability index rises from 2.25 ± 0.24 to 3.11 ± 0.077.

First: AGLGKTNELWARLAILK [YGR119C/NUP57]
Second: AGQNATVAVMSYSGYDI [RET1]
The protein stability index of the first is higher: 3.56 ± 0.14 for the first, 1.66 ± 0.036 for the second.
